Assay [1] deals with C-terminal domain of minor ampullate spidroin (CTDMi) from N. antipodiana (Nephila antipodiana). The assay can be described thus: SEC; Superdex 75 PG, 120 ml, 10 mM sodium phosphate pH 6.8 without NaCl, 1 ml/min; apparent molecular weight against standards. On the technique in general: In gel filtration, larger molecules generally elute earlier.
Assay [2] addresses Tri-domain miniature fibroin RP-LK-CTDMi of minor ampullate spidroin from N. antipodiana (Nephila antipodiana). Described as above.

Broadly, the stoichiometry N is the number of molecules, sites or subunits per partner or assembly. For the substance “C-terminal domain of minor ampullate spidroin (CTDMi) from N. antipodiana (domain or fragment)”, the stoichiometry N in assay [1] amounted to 2.
Regarding “Tri-domain miniature fibroin RP-LK-CTDMi of minor ampullate spidroin from N. antipodiana (domain or fragment)”, the stoichiometry N in assay [2] worked out at 2.
